Test results reported in US20250313648A1, “Binders of Chondroitin Sulfate Proteoglycan (CSPG4) Polypeptides” (Regents of the University of Minnesota, priority 2021, published 2025).

What was measured:
CSPG4 = target: T1, CSPG4 (Homo sapiens, UniProt Q6UVK1); test: Specificity of antibody by western blot of CSPG4 wild type and knockout cell lysates and immunofluorescence cell staining; format: binding; details: western blot of mock and CSPG4-CRISPR cell lines; immunofluorescence of HEY parent cells
T1 construct: screening against CSPG4 wild type and knockout cell lysates via western blot and cell staining via immunofluorescence; endogenous in cells; host or cells: HEY, ES-2 and A2780 human ovarian cancer cell lines (parent/mock cells, with CSPG4-CRISPR knockouts as negative control)
Method: FIGS. 1A-1D. Antibody 7H5A2 targets CSPG4. FIG. 1A) Amino acid sequence of recombinant protein target used to generate antibody 7H5A2 (SEQ ID NO:34). Black text denotes CSPG4 region (SEQ ID NO:33), the lighter gray text corresponds to human FC sequence for protein purification. […]) Western blot with CSPG4 antibodies 763.74 (FIG. 1B) and 7H5A2 (FIG. 1C). Cells are harvested in lysis buffer and 40 μg protein was loaded in each well from the indicated mock and CSPG4-CRISPR cell lines. Alpha-tubulin is included as a loading control. FIG. 1D) Immunofluorescence staining of HEY parent cells with antibody 7H5A2. Red bar=10 μm. Magnification 600×.
Western blot: Western blots were performed using standard methods as described previously by Yang, et al., Cancer Res. 69(19):7538-47 (2009). […]
Generation of novel CSPG4 antibody: CSPG4-specific mouse monoclonal antibody 7H5A2 was generated by Promab Biotechnologies Inc (Richmond, CA) by injection of a recombinant CSPG4 protein immunogen corresponding to aa 1538-2221 of the CSPG4 core protein extracellular domain, expressed and purified from a eukaryotic expression system (see FIG. 1A). The specificity of the antibody was determined by screening against CSPG4 wild type and knockout cell lysates via western blot and cell staining via immunofluorescence (see FIGS. 1B and 1C). […]

[1] = system: FAK activation and ZEB1 expression in EOC cells; test: Western blot for pFAK, FAK and ZEB1 in EOC cells plated in 1% methylcellulose with antibody; format: cell-based, human; details: 50 μg/ml antibody vs normal mouse IgG1, suspension culture 24 hours, all three cell lines
Method: (§1) FIGS. 10A-10D. Anti-CSPG4 antibody 7H5A2 inhibits Zeb1 expression and FAK activation, cell invasion and spheroid formation. FIG. 10A) Western blot for pFAK, FAK, and ZEB1 in EOC cells plated in 1% methylcellulose in the presence of 50 μg/ml normal mouse IgG1 (nmIgG1) or anti-CSPG4 antibody 7H5A2 cultured in suspension for 24 hours. FIG. 10B) Invasion assay using HEY cells pre-incubated with control (nm IgG1) or anti-CSPG4 (763.74 and 7H5A2) antibodies at 50 μg/ml for 2 hours and then plated in invasion chambers in the presence of the antibody in the top chamber only for 24 hours. Bars represent the total number of invading cells counted in five random fields/well from duplicate wells, +/−S.D. P values determined by student's t-test with Welch's correction. n=6 from 3 separate experiments. FIG. 10C) Cell growth assay using EOC cells plated in the presence of the indicated antibodies at 50 μg/ml in 1% methylcellulose for 7 days (HEY) or 14 days (A2780 and ES-2). Cells were collected from methylcellulose culture at those time points, and re-plated overnight in normal growth media in tissue culture plates. The following day all cells were collected from each well and counted. P values determined by student's t-test with Welch's correction, comparing live cell numbers (determined by trypan blue exclusion) from each condition, n=4. […]

[2] = system: EOC cells (HEY, A2780, ES-2); test: Spheroid formation / cell growth assay in 1% methylcellulose with antibody; format: cell-based, human; details: CSPG4 expressing mock transfected EOC cells, 50 μg/ml antibody
Method: as §1

HEY cells = test: Matrigel invasion assay with antibody pre-incubation; format: cell-based, human; details: 50 μg/ml antibody, 2 hours pre-incubation, 24 hours, inhibition greater than with antibody 763.74
Method: as §1

T1 sequence (Q6UVK1 30-2322): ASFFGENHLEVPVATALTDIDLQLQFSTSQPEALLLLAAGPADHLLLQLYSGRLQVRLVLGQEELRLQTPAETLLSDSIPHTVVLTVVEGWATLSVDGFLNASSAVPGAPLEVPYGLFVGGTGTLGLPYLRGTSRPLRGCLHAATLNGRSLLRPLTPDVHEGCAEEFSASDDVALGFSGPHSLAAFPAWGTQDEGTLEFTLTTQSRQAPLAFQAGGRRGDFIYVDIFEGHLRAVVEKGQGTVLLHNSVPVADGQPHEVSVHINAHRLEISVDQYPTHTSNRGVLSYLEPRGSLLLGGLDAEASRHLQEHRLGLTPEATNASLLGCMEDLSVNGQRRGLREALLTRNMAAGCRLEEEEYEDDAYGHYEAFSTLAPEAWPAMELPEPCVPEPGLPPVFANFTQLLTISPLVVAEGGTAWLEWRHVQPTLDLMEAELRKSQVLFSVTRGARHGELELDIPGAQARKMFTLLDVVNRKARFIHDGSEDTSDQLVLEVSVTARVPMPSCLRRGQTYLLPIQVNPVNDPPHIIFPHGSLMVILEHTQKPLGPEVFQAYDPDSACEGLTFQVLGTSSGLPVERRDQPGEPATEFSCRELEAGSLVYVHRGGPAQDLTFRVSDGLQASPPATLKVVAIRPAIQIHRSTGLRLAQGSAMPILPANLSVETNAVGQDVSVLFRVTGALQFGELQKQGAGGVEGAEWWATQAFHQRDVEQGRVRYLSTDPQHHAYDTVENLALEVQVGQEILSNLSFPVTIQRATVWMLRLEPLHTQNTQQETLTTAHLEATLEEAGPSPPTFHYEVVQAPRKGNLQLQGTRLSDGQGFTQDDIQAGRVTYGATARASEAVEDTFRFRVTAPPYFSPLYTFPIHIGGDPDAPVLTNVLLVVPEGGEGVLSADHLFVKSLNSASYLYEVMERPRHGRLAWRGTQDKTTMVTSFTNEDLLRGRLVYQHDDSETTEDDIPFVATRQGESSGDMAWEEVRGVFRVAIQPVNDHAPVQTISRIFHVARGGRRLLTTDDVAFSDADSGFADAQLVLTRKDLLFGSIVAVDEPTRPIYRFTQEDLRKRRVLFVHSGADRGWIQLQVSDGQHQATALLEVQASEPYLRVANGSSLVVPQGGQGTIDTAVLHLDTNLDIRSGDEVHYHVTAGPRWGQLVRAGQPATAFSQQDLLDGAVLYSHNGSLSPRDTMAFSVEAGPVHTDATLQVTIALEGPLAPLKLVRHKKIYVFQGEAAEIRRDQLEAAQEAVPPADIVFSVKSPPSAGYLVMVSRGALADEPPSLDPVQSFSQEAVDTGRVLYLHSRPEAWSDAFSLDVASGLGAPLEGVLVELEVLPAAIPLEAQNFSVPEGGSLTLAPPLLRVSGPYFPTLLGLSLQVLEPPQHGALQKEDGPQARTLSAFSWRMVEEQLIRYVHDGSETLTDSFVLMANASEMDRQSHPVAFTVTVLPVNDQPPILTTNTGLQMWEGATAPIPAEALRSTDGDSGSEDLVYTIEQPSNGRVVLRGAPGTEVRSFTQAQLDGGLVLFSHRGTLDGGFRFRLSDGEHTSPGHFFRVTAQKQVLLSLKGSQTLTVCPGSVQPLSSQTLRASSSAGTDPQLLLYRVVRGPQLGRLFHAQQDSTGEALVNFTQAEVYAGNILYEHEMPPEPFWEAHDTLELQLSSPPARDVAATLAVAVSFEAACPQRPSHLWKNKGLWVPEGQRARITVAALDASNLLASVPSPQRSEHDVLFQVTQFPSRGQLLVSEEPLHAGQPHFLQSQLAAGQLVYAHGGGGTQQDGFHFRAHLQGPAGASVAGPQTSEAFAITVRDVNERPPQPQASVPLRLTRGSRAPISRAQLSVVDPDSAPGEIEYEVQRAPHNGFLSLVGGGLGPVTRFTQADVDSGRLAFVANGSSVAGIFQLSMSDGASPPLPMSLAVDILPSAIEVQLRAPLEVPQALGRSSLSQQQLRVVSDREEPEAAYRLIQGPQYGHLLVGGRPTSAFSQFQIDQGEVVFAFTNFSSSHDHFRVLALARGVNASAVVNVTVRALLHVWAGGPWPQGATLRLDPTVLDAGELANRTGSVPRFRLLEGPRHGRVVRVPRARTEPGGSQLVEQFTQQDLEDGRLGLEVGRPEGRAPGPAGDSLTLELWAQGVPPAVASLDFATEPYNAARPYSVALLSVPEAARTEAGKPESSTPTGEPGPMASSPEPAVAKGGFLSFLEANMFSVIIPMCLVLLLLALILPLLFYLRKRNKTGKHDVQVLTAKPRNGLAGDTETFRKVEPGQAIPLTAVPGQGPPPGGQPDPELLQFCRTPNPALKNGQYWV

B1: 7H5A2: CSPG4-specific mouse monoclonal antibody, isotype IgG1; heavy chain variable SEQ ID NO:8, light chain variable SEQ ID NO:16 (antibody, V domains shown)
VH: QVQLQQSGAELVRPGSSVKISCKASGFAFSNYWMNWVKQRPGQGLEWIGQIFPGDGDTNYNGKFKGKATLTADKSSSTAYMQLISLTSEDSAVYFCVRESDWGRGTTLTVSS
VL: DIQMTQTTSSLSASLGDRVTISCSASQGINNYLNWYQQTPDGTVKLLIFYTSSLQSGVPSRFSGSGSGTDYSLTISNLEPEDIATYYCQQYSKLPFTFGSGTKLEIKR
recognition of CSPG4 on the cell surface (CSPG4): specifically recognizes CSPG4 on the cell surface | ZEB1 expression [1]: inhibited | activation of FAK [1]: inhibited | spheroid formation ([2]; 7 days (HEY) or 14 days (A2780 and ES-2)): significantly inhibited | EOC cell survival ([2]; live cell numbers by trypan blue exclusion): significantly inhibited | EOC invasion (HEY cells): significantly inhibited
